# Data taken from US20210267939A1, “COMPOSITIONS AND METHODS FOR TREATING NAFLD/NASH AND RELATED DISEASE PHENOTYPES” (priority 2018, published 2021).
# Columns and labels:
# [1] = biological target: 147 kDa GST-tagged human ACL (Sigma, SRP0288) (UniProt P53396)
# [2] = system: BCKD E1 (an alpha2beta2 heterotetramer)
# [3] = biological target: V5-tagged human ACL purified from Fao hepatoma cells (UniProt P53396)
# AKT = AKT ser473 phosphorylation in Fao hepatoma cells; type: cell-based; conditions: 10 μM for 1 hour
# Protocol: Cell culture studies: Fao hepatoma cells (Sigma) were cultured in RPMI-1640 (Gibco) containing 10% FBS (Sigma). […] Human embryonic kidney (HEK) 293 cells were used to visualize localization of CMV-ΔMTS-BDK-GFP and control CMV-GFP constructs by confocal microscopy. Cells were plated and transfected in a 96 well glass bottom plate that had been pre-coated with poly-D lysine solution for 1-hour at room temperature. For transfection, cells were incubated in Opti-mem containing 1.5 μl of Mirus, TransIT-293 transfection reagent and 1 μg DNA per well. After 24 hours, mitochondrial and nuclear staining was performed in live cells using Image-IT Live Mito and nuclear labeling Kit (Cell permeant MitoTracker Red CMXRos (579/599 nm) and Hoechst 33342 (350/461 nm) ThermoFisher). Confocal images were captured using a Zeiss LSM 510 inverted confocal microscope using a 405 diode for Hoechst, Argon for GFP, and HeNe 561 for MitoTracker. Images were captured in one plane using a 63× oil objective. Each wavelength was acquired separately and then consolidated after acquisition.
# Immunoblotting: Tissue lysates used for immunoblotting were prepared in Cell Lysis Buffer (Cell Signaling Technologies) containing protease inhibitor tablets (Roche), phosphatase inhibitor cocktails 2 and 3 (Sigma), and 10 mM PMSF. […] Immunoblots were developed using a Li-Cor Odyssey CLx and quantified using the Li-Cor software.
compound,measurement,setting,value
MBP-BDK (maltose-binding protein-tagged mature BDK lacking the mitochondrial-targeting pre-sequence; amino acid residue 31-382),"incorporation of [gamma-32P]-phosphoryl group into ACL (purified proteins, SDS gel, autoradiograph)",[1],"MBP-BDK also caused phosphorylation of ACL, albeit to a lesser extent than PKA"
same,"32P phosphorylation of the purified e1a subunit of BCKDH (purified proteins, SDS gel, autoradiograph)",[2],MBP-BDK also caused a robust increase in phosphorylation of the purified e1a subunit of BCKDH
"40 kDa catalytic subunit of bovine PKA (Promega, V5161)","incorporation of [gamma-32P]-phosphoryl group into ACL (purified proteins, SDS gel, autoradiograph)",[1],PKA caused a clear increase in ^32P labeling of ACL
same,"32P phosphorylation of BCKDH (purified proteins, SDS gel, autoradiograph)",[2],"PKA caused a lesser, but still clear increase in BCKDH phosphorylation"
V5 tagged human BDK purified from Fao hepatoma cells,ACL phosphorylation on ser455 measured by immunoblot after mixing of the purified proteins with ATP,[3],This study confirmed that BDK specifically phosphorylates ser455 of the V5-tagged human ACL
O=c1[nH]c2ccccc2n1C1CCN(Cc2ccc(-c3[nH]c4cc5ncnc5cc4nc3-c3ccccc3)cc2)CC1 [A6730],phosphorylation of ser473 on AKT,AKT,reduce
